Data as given in paper PMC5727297.

Biological target: WT SOD1, purified from E. coli (human) (UniProt P00441)
Experiment: NMR titration; 100 uM WT [U-15N]-apo-SOD1^SH in PBS pH 7.4 titrated with unlabelled CCS-D2 up to three equivalents, anaerobic, 298 K, 900 MHz

Sequence of UniProt P00441 (P00441 whole entry): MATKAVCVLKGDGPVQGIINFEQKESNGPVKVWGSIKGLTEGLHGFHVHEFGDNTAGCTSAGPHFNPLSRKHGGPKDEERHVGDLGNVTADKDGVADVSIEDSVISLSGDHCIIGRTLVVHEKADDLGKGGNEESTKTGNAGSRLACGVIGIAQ

CCS-D2, purified from E. coli (domain or fragment)
percent of apo-SOD1^SH still free with 1 equivalent of CCS-D2: 20%
